Assays:
[1] = target: T1, recombinant full-length UVR8^W285A from Sf9 cells (Arabidopsis), Q9FN03; test: SEC; details: remark: other sources report otherwise
T1 chain: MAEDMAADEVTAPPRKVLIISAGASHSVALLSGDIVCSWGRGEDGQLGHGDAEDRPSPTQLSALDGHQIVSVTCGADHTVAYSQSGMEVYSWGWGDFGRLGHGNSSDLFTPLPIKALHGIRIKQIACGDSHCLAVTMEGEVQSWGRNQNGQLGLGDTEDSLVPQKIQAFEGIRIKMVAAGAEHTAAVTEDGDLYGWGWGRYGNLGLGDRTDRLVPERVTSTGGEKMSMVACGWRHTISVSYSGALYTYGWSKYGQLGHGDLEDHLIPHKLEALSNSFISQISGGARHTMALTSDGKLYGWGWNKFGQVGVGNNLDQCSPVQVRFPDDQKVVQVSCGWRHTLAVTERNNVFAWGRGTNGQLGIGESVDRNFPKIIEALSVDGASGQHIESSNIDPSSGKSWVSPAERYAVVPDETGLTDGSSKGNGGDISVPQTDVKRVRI

cross-linking = target: the molecule itself; test: cross-linking
[2] = target: T2, UVR8^W285A overexpressed in uvr8-7/Pro35S:UVR8^W285A seedlings (Arabidopsis thaliana), Q9FN03; test: cross-linking; details: remark: other sources report otherwise
T2 chain: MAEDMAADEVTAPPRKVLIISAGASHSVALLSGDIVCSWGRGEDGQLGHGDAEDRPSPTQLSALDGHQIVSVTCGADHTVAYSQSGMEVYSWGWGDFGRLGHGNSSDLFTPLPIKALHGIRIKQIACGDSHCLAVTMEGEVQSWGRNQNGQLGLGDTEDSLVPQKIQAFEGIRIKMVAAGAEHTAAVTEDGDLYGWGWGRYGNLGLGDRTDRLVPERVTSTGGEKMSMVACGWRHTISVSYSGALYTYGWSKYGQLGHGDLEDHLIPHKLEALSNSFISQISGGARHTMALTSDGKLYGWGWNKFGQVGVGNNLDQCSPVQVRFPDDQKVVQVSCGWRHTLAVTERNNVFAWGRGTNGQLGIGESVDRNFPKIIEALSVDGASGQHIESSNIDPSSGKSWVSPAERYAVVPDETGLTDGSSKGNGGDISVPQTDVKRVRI

[3] = target: T3, recombinant full-length UVR8 (wild type) from Sf9 cells (Arabidopsis, UniProt Q9FN03 1-440); test: grating-coupled interferometry
T3 sequence: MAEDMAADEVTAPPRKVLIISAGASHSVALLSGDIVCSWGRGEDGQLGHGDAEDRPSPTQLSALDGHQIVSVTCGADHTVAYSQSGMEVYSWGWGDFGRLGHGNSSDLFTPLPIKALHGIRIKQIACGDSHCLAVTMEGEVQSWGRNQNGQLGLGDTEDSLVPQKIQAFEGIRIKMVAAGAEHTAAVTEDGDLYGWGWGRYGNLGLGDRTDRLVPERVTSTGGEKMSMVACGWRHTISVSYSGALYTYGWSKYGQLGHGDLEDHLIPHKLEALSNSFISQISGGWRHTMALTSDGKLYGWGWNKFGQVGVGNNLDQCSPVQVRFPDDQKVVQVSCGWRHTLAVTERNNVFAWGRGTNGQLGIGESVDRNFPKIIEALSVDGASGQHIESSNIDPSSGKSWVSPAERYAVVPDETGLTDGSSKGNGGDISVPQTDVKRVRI

[4] = target: T4, recombinant full-length UVR8^W285A from Sf9 cells (Arabidopsis, UniProt Q9FN03 1-440, W285A); test: grating-coupled interferometry
T4 sequence: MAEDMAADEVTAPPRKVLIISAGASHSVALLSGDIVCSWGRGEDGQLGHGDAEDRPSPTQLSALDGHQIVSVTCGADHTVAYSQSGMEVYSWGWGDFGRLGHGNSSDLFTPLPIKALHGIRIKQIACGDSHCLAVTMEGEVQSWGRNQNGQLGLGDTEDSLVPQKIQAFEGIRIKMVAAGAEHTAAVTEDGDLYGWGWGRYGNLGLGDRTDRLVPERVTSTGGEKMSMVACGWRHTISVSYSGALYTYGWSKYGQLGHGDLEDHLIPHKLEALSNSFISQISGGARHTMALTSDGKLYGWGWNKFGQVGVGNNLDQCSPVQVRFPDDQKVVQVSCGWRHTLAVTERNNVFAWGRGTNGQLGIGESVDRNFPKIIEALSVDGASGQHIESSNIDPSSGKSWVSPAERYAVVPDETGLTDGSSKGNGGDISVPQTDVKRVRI

B1: recombinant full-length UVR8^W285A from Sf9 cells, Q9FN03 1-440 (natural protein)
chain: MAEDMAADEVTAPPRKVLIISAGASHSVALLSGDIVCSWGRGEDGQLGHGDAEDRPSPTQLSALDGHQIVSVTCGADHTVAYSQSGMEVYSWGWGDFGRLGHGNSSDLFTPLPIKALHGIRIKQIACGDSHCLAVTMEGEVQSWGRNQNGQLGLGDTEDSLVPQKIQAFEGIRIKMVAAGAEHTAAVTEDGDLYGWGWGRYGNLGLGDRTDRLVPERVTSTGGEKMSMVACGWRHTISVSYSGALYTYGWSKYGQLGHGDLEDHLIPHKLEALSNSFISQISGGARHTMALTSDGKLYGWGWNKFGQVGVGNNLDQCSPVQVRFPDDQKVVQVSCGWRHTLAVTERNNVFAWGRGTNGQLGIGESVDRNFPKIIEALSVDGASGQHIESSNIDPSSGKSWVSPAERYAVVPDETGLTDGSSKGNGGDISVPQTDVKRVRI
stoichiometry N [1]: 2

B2: UVR8^W285F overexpressed in uvr8-7/Pro35S:UVR8^W285F seedlings (natural protein)
chain: MAEDMAADEVTAPPRKVLIISAGASHSVALLSGDIVCSWGRGEDGQLGHGDAEDRPSPTQLSALDGHQIVSVTCGADHTVAYSQSGMEVYSWGWGDFGRLGHGNSSDLFTPLPIKALHGIRIKQIACGDSHCLAVTMEGEVQSWGRNQNGQLGLGDTEDSLVPQKIQAFEGIRIKMVAAGAEHTAAVTEDGDLYGWGWGRYGNLGLGDRTDRLVPERVTSTGGEKMSMVACGWRHTISVSYSGALYTYGWSKYGQLGHGDLEDHLIPHKLEALSNSFISQISGGFRHTMALTSDGKLYGWGWNKFGQVGVGNNLDQCSPVQVRFPDDQKVVQVSCGWRHTLAVTERNNVFAWGRGTNGQLGIGESVDRNFPKIIEALSVDGASGQHIESSNIDPSSGKSWVSPAERYAVVPDETGLTDGSSKGNGGDISVPQTDVKRVRI
stoichiometry N (cross-linking): 2

B3: UVR8^W285A overexpressed in uvr8-7/Pro35S:UVR8^W285A seedlings, Q9FN03 1-440 (natural protein)
chain: MAEDMAADEVTAPPRKVLIISAGASHSVALLSGDIVCSWGRGEDGQLGHGDAEDRPSPTQLSALDGHQIVSVTCGADHTVAYSQSGMEVYSWGWGDFGRLGHGNSSDLFTPLPIKALHGIRIKQIACGDSHCLAVTMEGEVQSWGRNQNGQLGLGDTEDSLVPQKIQAFEGIRIKMVAAGAEHTAAVTEDGDLYGWGWGRYGNLGLGDRTDRLVPERVTSTGGEKMSMVACGWRHTISVSYSGALYTYGWSKYGQLGHGDLEDHLIPHKLEALSNSFISQISGGARHTMALTSDGKLYGWGWNKFGQVGVGNNLDQCSPVQVRFPDDQKVVQVSCGWRHTLAVTERNNVFAWGRGTNGQLGIGESVDRNFPKIIEALSVDGASGQHIESSNIDPSSGKSWVSPAERYAVVPDETGLTDGSSKGNGGDISVPQTDVKRVRI
stoichiometry N [2]: 2

B4: COP1 WD40 domain (COP1^349–675), recombinant from Sf9 cells (domain or fragment)
chain: TFTRYSRLRVIAEIRHGDIFHSANIVSSIEFDRDDELFATAGVSRCIKVFDFSSVVNEPADMQCPIVEMSTRSKLSCLSWNKHEKNHIASSDYEGIVTVWDVTTRQSLMEYEEHEKRAWSVDFSRTEPSMLVSGSDDCKVKVWCTRQEASVINIDMKANICCVKYNPGSSNYIAVGSADHHIHYYDLRNISQPLHVFSGHKKAVSYVKFLSNNELASASTDSTLRLWDVKDNLPVRTFRGHTNEKNFVGLTVNSEYLACGSETNEVYVYHKEITRPVTSHRFGSPDMDDAEEEAGSYFISAVCWKSDSPTMLTANSQGTIKVLVLAA
binding result [3]: binds | binding result [4]: binds
